Data from paper PMC11666439.

Key:
[1] = biological target: ACE-2-Fc fusion protein (human) (UniProt Q9BYF1); test: BLI
[2] = biological target: SARS-CoV-2 spike wt (in-house) (SARS-CoV-2) (UniProt P0DTC2); test: ELISA

Chain of UniProt Q9BYF1 (Q9BYF1 18-740): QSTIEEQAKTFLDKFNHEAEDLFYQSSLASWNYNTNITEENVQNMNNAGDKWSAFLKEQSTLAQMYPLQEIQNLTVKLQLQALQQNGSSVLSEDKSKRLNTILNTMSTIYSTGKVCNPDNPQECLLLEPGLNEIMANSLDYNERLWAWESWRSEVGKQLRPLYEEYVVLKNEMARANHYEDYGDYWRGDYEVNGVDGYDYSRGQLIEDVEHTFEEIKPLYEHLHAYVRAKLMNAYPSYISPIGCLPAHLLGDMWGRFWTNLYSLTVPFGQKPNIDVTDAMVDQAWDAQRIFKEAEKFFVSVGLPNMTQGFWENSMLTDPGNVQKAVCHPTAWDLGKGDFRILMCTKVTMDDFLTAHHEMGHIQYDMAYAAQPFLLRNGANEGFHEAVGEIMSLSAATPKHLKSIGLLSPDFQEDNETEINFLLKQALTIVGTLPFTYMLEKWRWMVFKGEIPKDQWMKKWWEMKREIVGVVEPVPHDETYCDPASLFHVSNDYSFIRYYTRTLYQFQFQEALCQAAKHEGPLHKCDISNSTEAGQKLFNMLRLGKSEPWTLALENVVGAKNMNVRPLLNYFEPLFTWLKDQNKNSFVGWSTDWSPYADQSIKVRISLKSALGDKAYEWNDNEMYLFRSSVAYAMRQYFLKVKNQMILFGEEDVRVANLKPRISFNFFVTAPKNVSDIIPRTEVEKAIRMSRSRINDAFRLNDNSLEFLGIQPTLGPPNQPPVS

Substance | Kd [1] [nM] | fold improvement of kdis compared to the wt [1] [fold] | koff [1] [s⁻¹] | kon [1] [M⁻¹ s⁻¹] | fold increase of binding after total IgG depletion of vaccinee plasma [2] [fold]
SARS-CoV-2 RBD Omicron BA.2 (domain or fragment) | 4.47 | 1.76 | 0.0032 | 716000 | –
SARS-CoV-2 RBD wt (domain or fragment) | 23.4 | – | – | – | –
native MBL from sera (from UniProt P11226 21-248) (natural protein) | – | – | – | – | 2.6
